The results in this text go back to patent publication US20120065136A1 (UNIVERSITY OF ROCHESTER, published 2012).

Substitutions are numbered along the chain they refer to.

Test [1] has as its target T1, A3C1C2 subunit of factor VIII (human, UniProt P00451 1709-2351).
T1 sequence: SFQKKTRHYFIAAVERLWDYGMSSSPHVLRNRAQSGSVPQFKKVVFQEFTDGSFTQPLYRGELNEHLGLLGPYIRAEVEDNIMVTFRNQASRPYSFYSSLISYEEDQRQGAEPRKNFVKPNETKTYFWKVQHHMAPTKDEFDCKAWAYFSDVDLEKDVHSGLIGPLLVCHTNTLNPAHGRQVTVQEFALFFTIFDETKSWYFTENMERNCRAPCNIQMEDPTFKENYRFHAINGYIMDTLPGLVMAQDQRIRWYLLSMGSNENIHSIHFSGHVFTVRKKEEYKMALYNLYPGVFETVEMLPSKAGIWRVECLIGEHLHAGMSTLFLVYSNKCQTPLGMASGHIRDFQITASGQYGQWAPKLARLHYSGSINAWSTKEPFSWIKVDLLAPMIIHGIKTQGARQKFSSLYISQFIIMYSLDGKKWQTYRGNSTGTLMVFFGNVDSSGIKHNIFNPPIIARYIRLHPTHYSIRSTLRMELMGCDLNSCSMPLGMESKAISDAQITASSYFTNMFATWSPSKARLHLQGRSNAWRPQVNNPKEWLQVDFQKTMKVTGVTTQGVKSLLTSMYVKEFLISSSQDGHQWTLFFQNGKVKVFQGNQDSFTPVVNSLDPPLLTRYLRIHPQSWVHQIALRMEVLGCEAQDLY
Description: cell-based or functional assay.

Test [2] concerns the target T1, A3C1C2 subunit of factor VIII. Description: fluorescence titration of acrylodan-labeled A1 (15 nM) with A3C1C2 (0-300 nM), pH 7.4, quadratic fit. As to the method: (§1) Purified A1 subunit from WT and Ala108Ile factor VIII was labeled with acrylodan by sulfhydryl specific protein modification as previously described (Wakabayashi et al., “Metal Ion-independent Association of Factor VIII Subunits and the Roles of Calcium and Copper Ions for Cofactor Activity and Inter-subunit Affinity,” Biochemistry 40:10293-10300 (2001), which is hereby incorporated by reference in its entirety). A1 (15 nM) from WT or Ala108Ile factor VIII was reconstituted with A3C1C2 subunit (0-300 nM) at 37° C. for 2 h in buffer B at pH 7.4. Fluorescence measurements were performed using an Aminco-Bowman Series 2 Luminescence Spectrometer (Thermo Spectronic, Rochester, N.Y.) at 23° C. at an excitation wavelength of 395 nm (2 nm bandwidth). Fluorescence emission was monitored at 480-490 nm (8 nm bandwidth) and all spectra were corrected for background. Data were fitted to a quadratic equation by non-linear least squares regression and parameter values were obtained.
(§2) To assess the affinity of the Ala108Ile A1 domain for C2 domain, the purified factor VIII variant and WT were treated with thrombin and the A1 subunits were separately purified as described supra. A1 subunits were then reacted with the environment-sensitive fluorescent probe, acrylodan, and these reagents were used to probe binding with the A3C1C2 subunit. […]

Test [3] has the same target. Description: fluorescence titration of acrylodan-labeled A1 with A3C1C2. Here is the method:
as §1, §2

The target is the same in test [4]. Briefly: changes in fluorescence of acrylodan labeled-A1 subunits. Here is the method: as §1, §2

B1: A1 subunit from Ala108Ile factor VIII (other)
chain: ATRRYYLGAVELSWDYMQSDLGELPVDARFPPRVPKSFPFNTSVVYKKTLFVEFTVHLFNIAKPRPPWMGLLGPTIQAEVYDTVVITLKNMASHPVSLHAVGVSYWKISEGAEYDDQTSQREKEDDKVFPGGSHTYVWQVLKENGPMASDPLCLTYSYLSHVDLVKDLNSGLIGALLVCREGSLAKEKTQTLHKFILLFAVFDEGKSWHSETKNSLMQDRDAASARAWPKMHTVNGYVNRSLPGLIGCHRKSVYWHVIGMGTTPEVHSIFLEGHTFLVRNHRQASLEISPITFLTAQTLLMDLGQFLLFCHISSHQHDGMEAYVKVDSCPEEPQLRMKNNEEAEDYDDDLTDSEMDVVRFDDDNSPSFIQIR
On to B1, for which the “fold reduction of decay rate against WT A1” value in test [1] worked out at 4.6 fold.

B2: acrylodan-labeled A1 subunit from WT factor VIII (other)
chain: B1 chain with I108A
modifications: acrylodan on a free thiol, likely Cys310
notes: A1 subunit purified from thrombin-cleaved, EDTA-treated recombinant B-domainless WT factor VIII (BHK cells), then labelled with acrylodan; also called AcA1 (WT); WT A1 subunit
Usually Kd stands for the free concentration of one partner at which half of the binding sites on the other are occupied at equilibrium, for simple one-to-one binding. A lower Kd goes with tighter binding. Molecule B2 gave a dissociation constant Kd in test [2] of 88.7 nM.

B3: acrylodan-labeled A1 subunit from Ala108Ile factor VIII (other)
chain: B1 chain
modifications: acrylodan on a free thiol, likely Cys310
notes: A1 subunit purified from thrombin-cleaved, EDTA-treated B-domainless Ala108Ile factor VIII, then labelled with acrylodan; also called AcA1 (Ala108Ile); Ala108Ile A1
The molecule B3 showed a dissociation constant Kd in test [2] of 24.1 nM. Besides, in test [3], the “fold increase in affinity against WT A1” value was approximately 4 fold. Besides, the “fold increase in binding affinity against WT” value in test [4] was approximately 3.7 fold.
